This is an account of results in the supplement of paper PMC9112550, “Optimization of the antimicrobial peptide Bac7 by deep mutational scanning” (BMC Biology, 2022).

This series concerns Escherichia coli TOP10. As to the kind of experiment: shrunken log2 fold change of peptide-encoding DNA abundance (4.5 h post-induction vs induction); higher = less antimicrobial activity (less host growth inhibition). The settings on record: time post-induction: 4.5 h; library: site-saturation at positions 5, 18, 19, 20.
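Further: peptides expressed intracellularly from a pBAD plasmid library in pooled LB shake-flask culture, induced with 0.3% L-arabinose, DNA abundance read by NGS, three biological replicates, DESeq2 with apeglm shrinkage.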

RRIRERPPRLPRPRPRPNWQPRP: the “shrunken log2 fold change” value stood at 0.103.
For RRIRTRPPRLPRPRPRPTPMPRP, the “shrunken log2 fold change” value was 0.276.
The same measure for RRIRIRPPRLPRPRPRPPHNPRP: -0.521.
The same measure for RRIRERPPRLPRPRPRPASYPRP: -0.0425.
Next, RRIRQRPPRLPRPRPRPEYTPRP: -0.11; RRIRHRPPRLPRPRPRPQGTPRP: -0.284.
In the case of RRIRTRPPRLPRPRPRPNFDPRP, the “shrunken log2 fold change” value was found to be 0.232.
The same measure for RRIRSRPPRLPRPRPRPMGVPRP: -0.084; for RRIRSRPPRLPRPRPRPKIIPRP: -0.0525.
Take RRIRTRPPRLPRPRPRPQFWPRP: the “shrunken log2 fold change” value is -0.00273.
Next, RRIRLRPPRLPRPRPRPYRNPRP: -1.13; RRIRMRPPRLPRPRPRPAPCPRP: 0.835.
With RRIRVRPPRLPRPRPRPNDQPRP, the “shrunken log2 fold change” value is -0.0759.
Next, RRIRQRPPRLPRPRPRPDKYPRP: -0.0227.
As for RRIRERPPRLPRPRPRPLTEPRP, the “shrunken log2 fold change” value was -0.298.
The same measure for RRIRGRPPRLPRPRPRPWQAPRP: 0.00236; for RRIRQRPPRLPRPRPRPWPAPRP: 0.0128.
The same measure for RRIRGRPPRLPRPRPRPRFRPRP: 0.3; for RRIRERPPRLPRPRPRPDLWPRP: -0.141.
RRIRPRPPRLPRPRPRPRHTPRP: the “shrunken log2 fold change” value was 0.136.
With RRIRRRPPRLPRPRPRPPDDPRP, the “shrunken log2 fold change” value is 0.743.
The same measure for RRIRCRPPRLPRPRPRPMRCPRP: 0.404.
In the case of RRIRMRPPRLPRPRPRPPAGPRP, the “shrunken log2 fold change” value turned out to be 1.5.
The same measure for RRIRERPPRLPRPRPRPNFTPRP: -0.111.
Next, RRIRQRPPRLPRPRPRPLFPPRP: 0.0501; RRIRHRPPRLPRPRPRPERDPRP: 0.155.
Next, RRIRVRPPRLPRPRPRPESNPRP: 0.0327; RRIRVRPPRLPRPRPRPLNGPRP: 0.103.
As to RRIRSRPPRLPRPRPRPHKPPRP, the “shrunken log2 fold change” value is -0.507.
Next, RRIRDRPPRLPRPRPRPFMHPRP: -0.148; RRIRCRPPRLPRPRPRPLVYPRP: -0.548.
Next, RRIRIRPPRLPRPRPRPMHQPRP: -0.121; RRIRMRPPRLPRPRPRPETSPRP: 0.163; RRIRRRPPRLPRPRPRPIMRPRP: 0.277.
The same measure for RRIRTRPPRLPRPRPRPNKWPRP: 0.0213.
With RRIRPRPPRLPRPRPRPRSWPRP, the “shrunken log2 fold change” value came to 0.533.
The same measure for RRIRWRPPRLPRPRPRPGWDPRP: 0.657; for RRIRIRPPRLPRPRPRPSLLPRP: -0.374.
Next, RRIRQRPPRLPRPRPRPTCMPRP: -0.163; RRIRSRPPRLPRPRPRPAFRPRP: 0.452; RRIRLRPPRLPRPRPRPYAAPRP: -0.36.
The same measure for RRIRSRPPRLPRPRPRPQEPPRP: -0.284; for RRIRARPPRLPRPRPRPALPPRP: 0.309; for RRIRERPPRLPRPRPRPMPKPRP: 0.153.
In the case of RRIRERPPRLPRPRPRPPFRPRP, the “shrunken log2 fold change” value came to 0.173.
The same measure for RRIRIRPPRLPRPRPRPTTAPRP: -0.00422.
The same measure for RRIRSRPPRLPRPRPRPWKVPRP: -0.173; for RRIRNRPPRLPRPRPRPSEQPRP: -0.288.
Next, RRIRPRPPRLPRPRPRPAKLPRP: 0.0398; RRIRWRPPRLPRPRPRPAKCPRP: -0.0704.
As to RRIRHRPPRLPRPRPRPQSEPRP, the “shrunken log2 fold change” value was -0.314.
Next, RRIRIRPPRLPRPRPRPEYSPRP: -0.119; RRIRSRPPRLPRPRPRPYYCPRP: 2.2; RRIRHRPPRLPRPRPRPNEAPRP: 0.0232.
The same measure for RRIRCRPPRLPRPRPRPQEKPRP: 0.0587; for RRIRPRPPRLPRPRPRPIDAPRP: 0.159.
Next, RRIRPRPPRLPRPRPRPQTVPRP: 0.184; RRIRPRPPRLPRPRPRPEAIPRP: 0.102.
With RRIRYRPPRLPRPRPRPDLTPRP, the “shrunken log2 fold change” value is -0.0272.
Next, RRIRHRPPRLPRPRPRPTGQPRP: 0.0378.
The same measure for RRIRKRPPRLPRPRPRPFCAPRP: 0.588.
Turning to RRIRGRPPRLPRPRPRPHHGPRP, the “shrunken log2 fold change” value is 0.0719.
The same measure for RRIRWRPPRLPRPRPRPWGEPRP: 0.039.
The same measure for RRIRQRPPRLPRPRPRPKRDPRP: 0.114.
Next, RRIRSRPPRLPRPRPRPFYSPRP: -0.131.
In the case of RRIRARPPRLPRPRPRPQVCPRP, the “shrunken log2 fold change” value came to 0.0435.
In the case of RRIRGRPPRLPRPRPRPQIMPRP, the “shrunken log2 fold change” value turned out to be 0.173.
RRIRDRPPRLPRPRPRPRNSPRP: the “shrunken log2 fold change” value is -0.394.
The same measure for RRIRNRPPRLPRPRPRPSVKPRP: -0.195; for RRIRIRPPRLPRPRPRPIGDPRP: -0.0264.
Take RRIRVRPPRLPRPRPRPMPCPRP: the “shrunken log2 fold change” value is 0.118.
The same measure for RRIRHRPPRLPRPRPRPCRMPRP: 0.0591.
The same measure for RRIRRRPPRLPRPRPRPEDRPRP: -0.154.
The same measure for RRIRYRPPRLPRPRPRPPNPPRP: -0.145; for RRIRPRPPRLPRPRPRPRAYPRP: -0.13; for RRIRMRPPRLPRPRPRPLSNPRP: -0.0789.
Regarding RRIRVRPPRLPRPRPRPNKTPRP, the “shrunken log2 fold change” value amounted to 0.172.
As for RRIRTRPPRLPRPRPRPMTWPRP, the “shrunken log2 fold change” value was 0.0637.
Next, RRIRFRPPRLPRPRPRPQKQPRP: -0.199; RRIRERPPRLPRPRPRPASKPRP: -0.12.
Next, RRIRRRPPRLPRPRPRPHCDPRP: -0.164; RRIRQRPPRLPRPRPRPYAKPRP: -0.122; RRIRMRPPRLPRPRPRPDSIPRP: 0.0402.
For the sequence RRIRMRPPRLPRPRPRPDEMPRP, the “shrunken log2 fold change” value was 0.0155.
Next, RRIRKRPPRLPRPRPRPYIIPRP: -0.0823; RRIRLRPPRLPRPRPRPFCLPRP: -0.485.
The same measure for RRIRVRPPRLPRPRPRPQKGPRP: -0.036.
Next, RRIRSRPPRLPRPRPRPAEAPRP: 0.429; RRIRSRPPRLPRPRPRPKEPPRP: -0.0411; RRIRFRPPRLPRPRPRPFNMPRP: -0.314.
As to RRIRTRPPRLPRPRPRPSEEPRP, the “shrunken log2 fold change” value amounted to 0.0771.
